The experiment deals with CIB1N-DBD (CIB1N (1-170) fused to the Gal4 DNA binding domain) (Arabidopsis thaliana) (UniProt Q8GY61). The experiment is described as follows: two-hybrid.
Sequence of UniProt Q8GY61 (Q8GY61 1-170): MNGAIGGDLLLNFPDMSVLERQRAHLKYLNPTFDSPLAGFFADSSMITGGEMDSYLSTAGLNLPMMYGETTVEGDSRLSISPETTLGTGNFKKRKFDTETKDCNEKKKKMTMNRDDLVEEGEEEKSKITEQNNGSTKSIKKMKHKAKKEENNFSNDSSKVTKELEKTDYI

Substance “CRY2PHR-AD (CRY2PHR fused to the Gal4 activation domain) (from UniProt Q96524 1-498) (domain or fragment)” returned a β-Gal Light of 47.1.

For the origin of these results see PMC4766841.
